This data set deals with T1, HkCpf1 (Helcococcus kunzii).
T1 chain: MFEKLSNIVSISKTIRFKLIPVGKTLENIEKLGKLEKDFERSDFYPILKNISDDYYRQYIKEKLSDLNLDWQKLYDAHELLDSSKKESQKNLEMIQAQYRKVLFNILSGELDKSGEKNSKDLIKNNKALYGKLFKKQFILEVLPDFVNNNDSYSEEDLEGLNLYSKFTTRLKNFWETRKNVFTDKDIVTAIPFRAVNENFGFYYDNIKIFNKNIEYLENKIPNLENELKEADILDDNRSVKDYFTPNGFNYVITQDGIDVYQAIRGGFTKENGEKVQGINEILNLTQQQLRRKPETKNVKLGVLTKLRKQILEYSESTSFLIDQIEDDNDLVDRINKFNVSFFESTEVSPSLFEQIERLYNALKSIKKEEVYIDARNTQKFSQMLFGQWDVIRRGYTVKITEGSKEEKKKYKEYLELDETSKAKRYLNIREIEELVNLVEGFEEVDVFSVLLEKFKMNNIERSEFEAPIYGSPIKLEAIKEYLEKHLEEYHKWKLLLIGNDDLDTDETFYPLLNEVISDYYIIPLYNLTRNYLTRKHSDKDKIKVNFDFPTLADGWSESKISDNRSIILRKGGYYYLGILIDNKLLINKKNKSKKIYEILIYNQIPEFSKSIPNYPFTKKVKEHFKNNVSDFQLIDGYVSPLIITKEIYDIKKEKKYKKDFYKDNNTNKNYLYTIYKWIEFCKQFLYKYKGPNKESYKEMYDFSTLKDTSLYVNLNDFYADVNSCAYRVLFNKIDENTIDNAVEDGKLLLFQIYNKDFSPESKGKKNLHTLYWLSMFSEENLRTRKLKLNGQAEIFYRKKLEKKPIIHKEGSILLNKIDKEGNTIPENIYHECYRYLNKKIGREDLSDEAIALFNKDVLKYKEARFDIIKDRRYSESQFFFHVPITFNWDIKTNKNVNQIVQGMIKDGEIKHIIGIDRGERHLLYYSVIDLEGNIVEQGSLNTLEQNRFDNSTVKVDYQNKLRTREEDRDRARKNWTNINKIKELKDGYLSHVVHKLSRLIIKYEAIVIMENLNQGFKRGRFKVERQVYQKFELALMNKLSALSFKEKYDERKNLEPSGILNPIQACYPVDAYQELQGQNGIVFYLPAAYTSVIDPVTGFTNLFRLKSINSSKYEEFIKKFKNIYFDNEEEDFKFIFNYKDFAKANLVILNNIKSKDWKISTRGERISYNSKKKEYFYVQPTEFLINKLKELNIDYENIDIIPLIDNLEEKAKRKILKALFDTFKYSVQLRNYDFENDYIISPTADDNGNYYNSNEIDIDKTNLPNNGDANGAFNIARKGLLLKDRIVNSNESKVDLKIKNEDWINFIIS
The data set is described as follows: cell_activity; PAM TTTC; T7EI. As to conditions: tags: HA (2A-eGFP vector). On the procedure:
GFP-positive cells were sorted by FACS, lysed with Buffer L+ 1/100V Protease K (Biotool) at 55° C. for 30 min, inactivated at 95° C. for 5 min, and directly used for PCR detection. Appropriate primers were designed near the Cpf1 targeting site, and the amplified product was purified using DNA Clean & Concentrator™-5 kit (ZYMO Research). 200 ng of purified PCR product was added into 1 uL of NEBuffer2 (NEB) and diluted to 10 uL with ddH₂O. Then, heterodimers were formed by re-annealing according to the previously reported method (Li, W., et al., Simultaneous generation and germline transmission of multiple gene mutations in rat using CRISPR-Cas systems. Nat Biotechnol, 2013. 31(8): p. 684-6). The reannealed product was added with 0.3 uL of T7EI endnucelease and 1/10 V NEBuffer2 (NEB), and digested at 37° C. for 1 h 30 min. Genotype analysis was performed by 3% TAE-Gel electrophoresis. Indels were calculated according to the method reported in the previous article (Cong, L., et al., Multiplex genome engineering using CRISPR/Cas systems. Science, 2013. 339(6121): p. 819-23).
The cells were transfected with Cpf1, crRNA31, and crRNA2 plasmids, and it was confirmed by PCR and T7EI analysis that crRNA31 can increase the editing efficiency of five Cpf1s of ArCpf1, BsCpf1, HkCpf1, PrCpf1, and PxCpf1 at the site MeCP2-4 by two folds (FIG. 13B).

B1: crRNA31 MeCP2 site 4 ; Mouse MeCP2 site 4 (ssRNA ; dsDNA)
RNA: AUUUCUACUAUGGUAGAUGUGUCCAACCUUCAGGCAAGGUG
DNA 1: TTTCGTGTCCAACCTTCAGGCAAGGTG
DNA 2: CACCTTGCCTGAAGGTTGGACACGAAA
Molecule B1 came in with an editing efficiency of about 2 fold vs crRNA2.

The values above are taken from patent publication US20200149021, “SYSTEM AND METHOD FOR GENOME EDITING” (INSTITUTE OF ZOOLOGY, CHINESE ACADEMY OF SCIENCES, published 2020).
